Reference: patent US20020160482A1, “Methods for protein purification” (priority 2001, published 2002)

T1: purified SSAO protein (recombinant human SSAO) (Homo sapiens, UniProt Q16853)
T1 construct: residues 29-763 of the human SSAO protein cloned from human aorta cDNA; mutated S. japonicum GST (Cys85/138/178 to Ser) with SQSQ spacer and 3C protease site EALFQG (N, cleaved yes); murine IgG1 heavy chain signal peptide (mutated), followed by an 18 amino acid spacer (N, cleaved yes); made in house; host or cells: HEK293 cells stably transfected with pMB887, protein secreted into the medium
T1 sequence (Q16853 29-763): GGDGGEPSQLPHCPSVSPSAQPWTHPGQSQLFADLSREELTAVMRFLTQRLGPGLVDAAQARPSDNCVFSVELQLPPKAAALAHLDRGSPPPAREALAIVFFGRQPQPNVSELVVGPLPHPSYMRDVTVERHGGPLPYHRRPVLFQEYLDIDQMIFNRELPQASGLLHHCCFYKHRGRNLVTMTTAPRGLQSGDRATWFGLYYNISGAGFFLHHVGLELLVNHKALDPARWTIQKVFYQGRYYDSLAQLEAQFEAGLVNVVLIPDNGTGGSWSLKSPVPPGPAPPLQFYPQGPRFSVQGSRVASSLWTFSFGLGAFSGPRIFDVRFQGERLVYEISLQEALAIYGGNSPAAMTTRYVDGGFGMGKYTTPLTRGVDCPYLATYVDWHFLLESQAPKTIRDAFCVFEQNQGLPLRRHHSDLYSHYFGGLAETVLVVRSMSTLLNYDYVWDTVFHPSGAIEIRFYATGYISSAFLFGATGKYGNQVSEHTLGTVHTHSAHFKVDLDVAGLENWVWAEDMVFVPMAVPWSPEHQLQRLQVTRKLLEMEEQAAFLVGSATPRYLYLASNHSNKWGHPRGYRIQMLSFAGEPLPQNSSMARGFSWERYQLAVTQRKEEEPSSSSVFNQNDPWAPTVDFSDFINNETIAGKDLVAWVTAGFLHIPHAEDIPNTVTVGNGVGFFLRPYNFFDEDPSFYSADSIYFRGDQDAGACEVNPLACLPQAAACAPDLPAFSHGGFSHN

B1: SSAO protein: purified soluble recombinant human SSAO (residues 29-763) after removal of the GST fusion partner (protein, listed as Homo sapiens)
chain: T1 sequence (Q16853 29-763)

Legend:
[1] = biological target: T1, purified SSAO protein (recombinant human SSAO); assay: Semicarbazide inhibition of benzylamine oxidase activity (spectrophotometric amine oxidase assay); type: biochemical; settings: in the presence of 0.1 mM semicarbazide, read-out: benzylamine oxidase activity inhibited
Procedure: A spectrophotometric assay for monoamine oxidases described by Holt and coworkers (Holt et al., 1997) was used to determine amine oxidase activity in samples from the different purification steps. The assay was performed in 96-well microtiter plates incubated at 37° C. in a SPECTRAmax 250 microplate spectrophotometer (Molecular Devices, Sunnyvale, Calif.). The reagent mix containing 1 mM vanillic acid (Sigma, St. Louis, Mo.), 500 μM 4-aminoantipyrine (Sigma), and 4U ml^−1 peroxidase (type VI from horseradish, Sigma) in 0.2 M potassium phosphate buffer (pH 7.6) was prepared on the same day assays were performed and kept at 5° C. until used. Reactions were started by mixing 50 μl sample, 50 μl reagent mix and 200 μl potassium phosphate buffer with or without 750 μM benzylamine hydrochloride (Sigma) and were performed in triplicate. In order to obtain blank reference values, wells were analyzed with buffer added in place of sample. Absorbance changes were followed at 490 nm for 10-40 minutes. Standard curves were prepared with dilutions of a stock solution of H2O2 in potassium phosphate buffer ranging from 10 nmol/well to 120 nmol/well. When inhibition experiments were carried out, the samples were incubated in 300 μM semicarbazide at 37° C. for 30 minutes, before addition of the benzylamine solution. […]

[2] = Spectrophotometric amine oxidase assay: specific benzylamine oxidase activity of purified proteins; type: biochemical, human
Procedure: A spectrophotometric assay for monoamine oxidases described by Holt and coworkers (Holt et al., 1997) was used to determine amine oxidase activity in samples from the different purification steps. The assay was performed in 96-well microtiter plates incubated at 37° C. in a SPECTRAmax 250 microplate spectrophotometer (Molecular Devices, Sunnyvale, Calif.). The reagent mix containing 1 mM vanillic acid (Sigma, St. Louis, Mo.), 500 μM 4-aminoantipyrine (Sigma), and 4U ml^−1 peroxidase (type VI from horseradish, Sigma) in 0.2 M potassium phosphate buffer (pH 7.6) was prepared on the same day assays were performed and kept at 5° C. until used. Reactions were started by mixing 50 μl sample, 50 μl reagent mix and 200 μl potassium phosphate buffer with or without 750 μM benzylamine hydrochloride (Sigma) and were performed in triplicate. In order to obtain blank reference values, wells were analyzed with buffer added in place of sample. Absorbance changes were followed at 490 nm for 10-40 minutes. Standard curves were prepared with dilutions of a stock solution of H2O2 in potassium phosphate buffer ranging from 10 nmol/well to 120 nmol/well. When inhibition experiments were carried out, the samples were incubated in 300 μM semicarbazide at 37° C. for 30 minutes, before addition of the benzylamine solution.

| Molecule | inhibition at 100 µM [1] [%] | specific activity ([2]; after cleavage, flow-through of second glutathione-Sepharose step (cleavage buffer with DTT)) [nmol/min/mg] | specific activity ([2]; after removal of GST fusion partner and diafiltration (final product)) [nmol/min/mg] | specific activity ([2]; per purification step, nmol of H2O2 produced per minute using 0.5 mM benzylamine as substrate, listed as Diafiltrate) [nmol/min/mg] | specific activity ([2]; per purification step, nmol of H2O2 produced per minute using 0.5 mM benzylamine as substrate, listed as GSH-affinity step-2 (flow-through)) [nmol/min/mg] |
| --- | --- | --- | --- | --- | --- |
| NNC(N)=O [semicarbazide] | > 95 | – | – | – | – |
| B1 | – | 522 | 809 | 809 | 522 |
